# Biological target: PCSK9 (UniProt Q8NBP7 153-692)
# Experiment: SPR
# PCSK9, sequence (Q8NBP7 153-692): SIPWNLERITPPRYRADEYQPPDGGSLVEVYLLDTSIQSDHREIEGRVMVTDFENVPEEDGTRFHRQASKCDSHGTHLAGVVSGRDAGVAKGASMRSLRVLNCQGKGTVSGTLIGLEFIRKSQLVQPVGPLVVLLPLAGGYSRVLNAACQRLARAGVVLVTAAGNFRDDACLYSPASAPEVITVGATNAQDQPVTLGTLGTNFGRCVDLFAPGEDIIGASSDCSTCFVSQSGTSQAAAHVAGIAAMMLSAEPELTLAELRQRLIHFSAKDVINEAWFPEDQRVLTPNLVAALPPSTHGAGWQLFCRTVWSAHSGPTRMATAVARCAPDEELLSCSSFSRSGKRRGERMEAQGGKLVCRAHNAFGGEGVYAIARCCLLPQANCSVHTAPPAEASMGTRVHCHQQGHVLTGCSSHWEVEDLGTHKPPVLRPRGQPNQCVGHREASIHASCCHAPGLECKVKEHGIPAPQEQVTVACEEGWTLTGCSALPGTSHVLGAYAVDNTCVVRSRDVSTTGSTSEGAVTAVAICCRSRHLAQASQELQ
row,Binder,binding signal [%Rmax]
1,PCSK9 Unfunctionalized-3 (ssDNA) DNA: CGAATCAGATTGGACCAGCACCCTCCGTCTCCGCTCCCCTCGTCTTGTTGTTTCCCTTTCCCTGAGTCCAGATGTAGGTAG,34
2,PCSK9 Unfunctionalized-1 (ssDNA) DNA: CGAATCAGATTGGACCAGTTACCGCCCTCTCCCTTTTGTCCCCTCCGTTGTTTCTCTTTCCCTGAGTCCAGATGTAGGTAG,30
3,"PCSK9 Charged-2 (ssDNA, none (no functionalized codon)) DNA: CGAATCAGATTGGACCAGTTTCATCCCTTTTTGCCACCCCTTTGTTGTCCACCCCCATGTCCTGAGTCCAGATGTAGGTAG",11

# Biological target: IL-6 (UniProt P05231 30-212)
# Experiment: SPR
# IL-6, sequence (P05231 30-212): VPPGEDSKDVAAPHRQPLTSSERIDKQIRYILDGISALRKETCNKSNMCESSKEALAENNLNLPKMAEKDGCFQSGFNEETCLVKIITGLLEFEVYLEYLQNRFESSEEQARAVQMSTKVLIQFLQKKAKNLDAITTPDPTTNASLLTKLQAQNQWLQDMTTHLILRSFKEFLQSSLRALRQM
row,Binder,binding signal [%Rmax]
1,IL-6 Unfunctionalized-3 (ssDNA) DNA: CTCGGATGAACCTGGACTCTGTTTTTACTACCGCGCTAGCCGCCTCATCCGTTTTAGCGCCATGCATCGAAGCCAAGATTC,3
2,IL-6 Unfunctionalized-2 (ssDNA) DNA: CTCGGATGAACCTGGACTTTACTGCGGCGCCAGCCGTGCCCATCCTTTCTTCATCCGTGCCCAGCATCGAAGCCAAGATTC,3
3,IL-6 Unfunctionalized-1 (ssDNA) DNA: CTCGGATGAACCTGGACTTTATTGCACTGGCTGTACTTTTCGTATCCATGGTCATCTTTTCTAGCATCGAAGCCAAGATTC,4
4,IL-6 Unfunctionalized-4 (ssDNA) DNA: CTCGGATGAACCTGGACTTAATGATGCTCATGGTGCTCTTCATCACCATCTTCGTTCCATCCTGCATCGAAGCCAAGATTC,4
5,IL-6 Unfunctionalized-5 (ssDNA) DNA: CTCGGATGAACCTGGACTTCTTCATTGCGCTGGTGCCTGCCATCCTTGTTCCATCCCCTTTGCGCATCGAAGCCAAGATTC,4

# Source: publication PMC6430648
